Assay results reported in patent US20120164670A1, “METHODS AND KITS FOR MEASURING ENZYME ACTIVITY” (President and Fellows of Harvard College, priority 2009, published 2012).

Substrate: CC(=O)NCCCC[C@H](NC(=O)[C@H](CCCNC(=N)N)NC(=O)[C@H](C)NC(=O)[C@@H](N)[C@@H](C)O)C(=O)N[C@@H](CO)C(=O)N[C@H](C(=O)NCC(=O)O)[C@@H](C)O
Experiment: Sirtuin assay kit (PNC1-OPT) with hSIRT1 enzyme
Type: biochemical, human
Conditions: other: kit protocol, Experiment 2 mastermix; pH 8.0; 37.0 °C
Description: Kit contents are generally stored at −20° C. Modifications or variations in volumes or amounts of components described below are compatible with kits and assays described herein. • 1) Assay Buffer: 2 tubes with 1 mL each of 10× Assay Buffer. Dilute to 1× with ddH20 prior to use. • 2) Non-tagged Peptide Substrate: 1 tube with 140 uL of 5 mM H3K9ac substrate (TARK(ac)STG)) (SEQ ID NO:23). This is a sample substrate only; any substrate may be used in this assay. • 3) β-NAD: a) 1 tube with 450 uL of 10 mM B-NAD, and b) 1 tube with 50 uL of 100 mM B-NAD. In some instances, it is preferable to keep β-NAD in concentrated aliquot form, and dilute it prior to use. • 4) hSIRT1 Enzyme: 1 tube with 400 uL of 1.1 ug/uL full-length human SIRT1 enzyme. • 5) yPNC1 Enzyme: 1 tube with 200 uL of 2 ug/uL yeast PNC1 enzyme • 6) Developing Reagent: 2 vials with 10 mL each 1× Developer (10 mM OPT/10 mM DTT in 100% EtOH). Minimize exposure to light as outlined in the procedure. […]
In some instances, when adding the OPT Developer it is advisable to work in a dark or dimly lit setting. […] Once covered, ambient lighting may be restored. • d) Read the samples. Samples may be transferred to a 96-well plate for reading (do this under dim light). Read the fluorescence on a fluorometer with filters set to excitation ˜420 nm, and emission ˜460 nm. […]

B1: full-length human SIRT1 enzyme (Homo sapiens) (protein)
chain: MADEAALALQPGGSPSAAGADREAASSPAGEPLRKRPRRDGPGLERSPGEPGGAAPEREVPAAARGCPGAAAAALWREAEAEAAAAGGEQEAQATAAAGEGDNGPGLQGPSREPPLADNLYDEDDDDEGEEEEEAAAAAIGYRDNLLFGDEIITNGFHSCESDEEDRASHASSSDWTPRPRIGPYTFVQQHLMIGTDPRTILKDLLPETIPPPELDDMTLWQIVINILSEPPKRKKRKDINTIEDAVKLLQECKKIIVLTGAGVSVSCGIPDFRSRDGIYARLAVDFPDLPDPQAMFDIEYFRKDPRPFFKFAKEIYPGQFQPSLCHKFIALSDKEGKLLRNYTQNIDTLEQVAGIQRIIQCHGSFATASCLICKYKVDCEAVRGDIFNQVVPRCPRCPADEPLAIMKPEIVFFGENLPEQFHRAMKYDKDEVDLLIVIGSSLKVRPVALIPSSIPHEVPQILINREPLPHLHFDVELLGDCDVIINELCHRLGGEYAKLCCNPVKLSEITEKPPRTQKELAYLSELPPTPLHVSEDSSSPERTSPPDSSVIVTLLDQAAKSNDDLDVSESKGCMEEKPQEVQTSRNVESIAEQMENPDLKNVGSSTGEKNERTSVAGTVRKCWPNRVAKEQISRRLDGNQYLFLPPNRYIFHGAEVYSDSEDDVLSSSSCGSNSDSGTCQSPSLEEPMEDESEIEEFYNGLEDEPDVPERAGGAGFGTDGDDQEAINEAISVKQEVTDMNYPSNKS
notes: 1.1 ug/uL full-length human SIRT1 enzyme
For B1, the Km was 50 µM.
